Measured values published in patent publication US9340788B2 (priority 2007, dated 2016).
Entries after “also recorded” stand apart in the source; their conditions may differ.

B1: PDGFRα siRNA: "smart Pool" siRNA to hPDGFRα (Dharmacon), SEQ ID NO: 1-4 (nucleic acid)
chain 1: CGAGACUCCUGUAACCUUAUU
chain 2: GAGCUUCACCUAUCAAGUUUU
chain 3: GACAGUGGCCAUUAUACUAUU
chain 4: GAAUAGGGAUAGCUUCCUGUU
modifications: pool of four siRNAs, further chemistry not given here
B2: p110α siRNA: mixture of 4 RNAi oligos, "smart pool" from Dharmacon, against PI3K p110α, SEQ ID NO: 5-8 (nucleic acid)
chain 1: GCGAAAUUCUCACACUAUU
chain 2: GUGGUAAAGUUCCCAGAUA
chain 3: GCUUAGAGUUGGAGUUUGA
chain 4: GACCCUAGCCUUAGAUAAA
modifications: pool of four siRNAs, further chemistry not given here

Assays:
Assay type in all cases: cell-based, Human cytomegalovirus
HCMV [1] = test: IE1 immunofluorescence of HCMV infected HEL cells
Experimental: HEL cells were transfected with PDGFRα siRNA (smart pool, Dharmacon) or non-targeting control siRNA (Dharmacon) for 48-60 hours when maximum protein knockdown is achieved (panels a and b. Also see FIG. 3d). Cells were then infected with Towne, AD169, TR, or CMV-GFP strains of HCMV for 1 hour, washed and returned to 37° C. in complete growth media. Supernatants obtained from these cultures were used in subsequent assays measuring production of infectious virus as described below. […] Cultures infected with supernatants from GFP-CMV treated cells were monitored daily under the fluorescence microscope. Over 40% of the control siRNA treated cells expressed CMV-GFP 1 day post infection (c, 1 dpi) and this number increased to 100% by day 6 (c, 6 dpi). Note the appearance of “plaques”-like groups of cells in control siRNA transfected cells (c, 3 and 6 dpi). […]
Measurements of Infectious Virus Production. […] A duplicate set of cultures was analyzed by immunofluorescence at 12 hours post infection (hpi) to assess percent of IE1 positive cells, as a measure of “primary infection”. […] 12 hpi cells were stained for IE1 and IE1 positive cells were counted amongst a total of 100 cells/low magnification microscopic field, 4 fields/condition. […] Where indicated, CMV-GFP infected cells were monitored daily under fluorescence microscope. […]

HCMV [2] = test: Viral attachment and internalization assay (pp65 immunofluorescence); settings: HEL
Experimental: (A) HEL cells were pretreated with PBS (20 min 4° C.), IMC-3G3 (2 h, 37° C., 10 μg/ml), or PDGF-AA (20 min, 4° C., 10 ng/ml) prior to infection with HCMV (MOI of 1, 4° C., 1 h). Cells were returned to 37° C. for 30 minutes, and processed for pp65^HCMV and PDGFRα double immunofluorescence. […] All conditions were assayed in triplicate cultures. One hundred cells in 4 low magnification fields were counted. Bars represent SD.
Viral Attachment and Internalization Assays. Mouse fibroblasts and HEL cells (72 hours following siRNA transfections) were incubated with HCMV (MOI of 0.5) or mock treated for 1 hour at 4° C., after which cells were returned to 37° C. for 15, 30, or 60 min. Cells were fixed using methanol (20 min) and processed for pp65 immunofluorescence. Four low power fields were counted for each condition and pp65 positive were recorded for each 100 cells. Internalization assays were repeated twice.

HCMV [3] = test: HCMV IE1 / viral gene expression, western blot of infected cells
Experimental: (A) pp65 immunofluorescence after HCMV treatment (1 h, 4° C.) followed by shifting to 37° C. for indicated times. Rows represent (top to bottom): HEL, PDGFRα null fibroblasts, parental fibroblasts, null fibroblasts overexpressing hPDGFRα, HEL transfected with control, or PDGFRα siRNA. Nuclei were stained with DAPI. (B) Average±S.D. pp65 positive/100 cells counted in triplicate from (A). (C) Mock or HCMV infected cells were analyzed by western blotting with the indicated antibodies. Lanes 1-4 indicate HEL, 325S, PDGFRα null and PDGFRα null over-expressing hPDGFRα, respectively. (D) HEL transfected with control or PDGFRα siRNA were mock (lanes 1) or HCMV-treated (lanes 2) and subjected to western blots with indicated antibodies. (E) Western blot of HEL and U87 lysates after infection with mock (lanes 1), HCMV (lanes 2), or HCMV pretreated with IMC-3G3 (10 μg/ml, 12 h, lanes 3) or Gleevec (100 nM, 1 h, lanes 4). […] 6 dpi, supernatants were used to infect naïve HEL cells, followed by IE1 immunostaining and quantification (secondary infection). […]
HUVEC cells were pre-treated with IMC-3G3 (10 μg/ml, Imclone, 12 h), or Gleevec (100 nM, 1 h) prior to HCMV or mock infection. 12 hours post-infection, cell lysates were analyzed by western blot for the presence of IE1 gene product. […]
(§1) Western Blot, Immunoprecipitation, and Immunofluorescence analyses. […] Cell lysates were analyzed by SDS-PAGE. […]

HCMV [4] = test: Plaque formation assay; settings: HEL; CMV-GFP MOI of 1; siRNA knockdown at time of infection; counted at 14 dpi
Experimental: HEL cells transfected with PDGFRα siRNA and control cultures were infected with CMV-GFP (MOI of 1), as described in FIG. 8. Unabsorbed viruses were washed and cells were returned to 37 C. 24 h later, supernatant was harvested and used to infect naïve HEL cultures (6 wells/condition) which were monitored daily for 14 days under the fluorescence microscope for plaque formation. Photomicrographs show representative examples of the CMV-GFP infected cells at 2 and 12 days post infection (2 dpi and 12 dpi, respectively). b. Average plaques counted in 4 separate low magnification fields for each well at 14 dpi. […] As receptor levels return to normal (12 dpi), few infected (green fluorescent) cells were detected in the PDGFRα siRNA treated cultures (a, lower right panel), without formation of plaques. Plaque formation assays were repeated twice. Average counts (n=12)±SD are shown.
Plaque Formation Assays. Plaque formation was assayed. Confluent HEL cells in 6 well cluster plates were incubated with Towne-GFP (MOI of 1, 1 hr) in 0.5 ml growth media. Cells were washed and returned to 37° C. (in complete growth media). 24 h later supernatant was harvested and used to infect naïve HEL cultures which were monitored for plaque formation for 6-14 days. […] At day 14, plaques in ten low magnification fields/condition were counted (each experimental condition was tested in 6 independent wells).

HCMV [5] = test: Measurements of infectious virus production; settings: for infectious virus production (secondary infection): supernatants of siRNA treated HEL harvested 6 dpi used to infect naïve HEL, IE1 staining
Experimental: HEL cells were transfected with PDGFRα siRNA (smart pool, Dharmacon) or non-targeting control siRNA (Dharmacon) for 48-60 hours when maximum protein knockdown is achieved (panels a and b. Also see FIG. 3d). Cells were then infected with Towne, AD169, TR, or CMV-GFP strains of HCMV for 1 hour, washed and returned to 37° C. in complete growth media. Supernatants obtained from these cultures were used in subsequent assays measuring production of infectious virus as described below. One set of cultures (panels a and b) were used 12 hours post-infection (12 hpi) to measure the expression level of PDGFRα and IE1 by immunofluorescence. […] Cultures infected with supernatants from GFP-CMV treated cells were monitored daily under the fluorescence microscope. Over 40% of the control siRNA treated cells expressed CMV-GFP 1 day post infection (c, 1 dpi) and this number increased to 100% by day 6 (c, 6 dpi). Note the appearance of “plaques”-like groups of cells in control siRNA transfected cells (c, 3 and 6 dpi). […] To measure infectious virus production, supernatants from both control and PDGFRα siRNA treated cultures were harvested at 6 dpi and used to infect naïve HEL cells (secondary infection). […] These experiments were repeated twice.
Measurements of Infectious Virus Production. HEL cells (where indicated were treated with siRNA) were infected with HCMV Towne or CMV-GFP for 1 h, washed and grown for 6 days at 37° C. A duplicate set of cultures was analyzed by immunofluorescence at 12 hours post infection (hpi) to assess percent of IE1 positive cells, as a measure of “primary infection”. Six days post infection supernatant from these cells were centrifuged to exclude cell debris and used to infect naïve HEL cultures as described above. 12 hpi cells were stained for IE1 and IE1 positive cells were counted amongst a total of 100 cells/low magnification microscopic field, 4 fields/condition. These counts were used to determine the level of “secondary infection”—i.e., infectious virus production from the primary infected cells. Where indicated, CMV-GFP infected cells were monitored daily under fluorescence microscope. Each condition was assayed in triplicate.

HCMV [6] = test: HCMV pp65 western blot in HEL cells; settings: siRNA 48 h prior to HCMV MOI of 1, western blot 2 h post-infection, indicates viral entry not inhibited
Experimental: HEL cells were transfected with siRNA against the PI3K p110α catalytic subunit (a mixture of 4 RNAi oligos, “smart pool” from Dharmacon) or non-targeting, control siRNA (Dharmacon) for 48 h prior to infection with HCMV (MOI of 1) for 1 hour. Cells were washed and cultured for 2 h-6 days. a. […] The mean number of IE1 positive cells is reduced by ˜50% in the PI3 Kp110α knockdown cultures—panel c**, p<0.01. PI3K p110α knock down is also significant (b, left panels, red fluorescence). However, unlike cells that lack a functional PDGFRα, PI3K p110α knock down cells are capable of producing infectious virus as shown by IE1 staining of the secondary infected cultures (panel d). A 10% decrease in infectious virus production in the cells treated with p110α siRNA is insignificant*, bars represent SD, […], panel c. Experiments were repeated twice, all conditions were assayed in triplicate. Similar results were obtained with both Towne-infected cultures (illustrated in this figure) and CMV-GFP.
Upper panel: HEL cells pretreated with anti-human PDGFRα antibody (10 ng/ml, for 30 min, clone AF-307-NA from R&D; lanes 1 and 4) or with AG 1295 (lane 3, […], from Calbiochem) were stimulated with Towne HCMV (lanes 2-4) or Mock infected (lane 1) for 10 min at 37 C. […]
as §1

HCMV [7] = test: HCMV IE1 / viral gene expression, western blot of infected cells; settings: HEL; p110α knockdown vs non-targeting siRNA

| Molecule | IE1 gene expression (primary infection) (HCMV [1]; HEL transfected with siRNA 48-60 h, 12 hpi, vs control siRNA) | viral internalization (nuclear pp65) (HCMV [2]; siRNA knockdown, 60 min after shifting to 37° C., vs non-targeting control siRNA, p<0.001) | viral gene expression (IE1 and pp65) (HCMV [3]; HEL cells pre-treated with siRNA, western blot, compared to controls) | plaque formation (HCMV [4]) | CMV-GFP expression (HCMV [5]; siRNA treated HEL cells monitored daily under fluorescence microscope, 1-6 dpi) | infectious virus production (secondary infection) (HCMV [5]) | reduction of mean number of IE1 positive cells (HCMV [1]; HEL, p110α knockdown cultures, p<0.01) | viral entry (HCMV [2]; p110α knockdown) | pp65 HCMV expression (HCMV [6]) | IE1 expression (HCMV [3]; HEL, siRNA 48 h prior to HCMV MOI of 1, western blot 2 h post-infection) | viral gene expression (HCMV [7]) | decrease in infectious virus production (HCMV [5]; HEL treated with p110α siRNA, secondary infection, insignificant) |
| --- | --- | --- | --- | --- | --- | --- | --- | --- | --- | --- | --- | --- |
| B1 | Near complete inhibition; also recorded: significantly inhibited | near complete blockade | undetectable | completely blocked; also recorded: No plaques were formed | did not express CMV-GFP | Near complete inhibition; also recorded: did not produce any infectious virus | – | – | – | – | – | – |
| B2 | – | – | – | – | – | lower levels than controls | ~50% | allowed | unchanged | inhibited | delay | 10% |
